Source: paper PMC9482650, “Quantitative fragmentomics allow affinity mapping of interactomes” (Nature Communications, 2022)

B1: REELD1, A0A1B0GV85 (peptide)
chain: PSVGSKKTVL
B2: SBF1, O95248 (peptide)
chain: DRIQSCLSDA
B3: NECTIN1, Q15223 (peptide)
chain: SFISKKEWYV
B4: SLCO1A2, P46721 (peptide)
chain: LKDDELKTKL

target: HTRA2, O43464; assay: holdup assay; design: key: below the threshold = too weak to quantify, mostly under pKd 3.1 to 4; conditions: plain residues with an end cap or a label only (N-terminal biotin on a linker: ado-ado)
Sequence (O43464 355-458): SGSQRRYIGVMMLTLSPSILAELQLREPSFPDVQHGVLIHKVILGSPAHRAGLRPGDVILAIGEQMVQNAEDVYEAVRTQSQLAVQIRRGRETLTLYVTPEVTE

Binder	pKd
B1	below the threshold
B2	below the threshold
B3	4.2
B4	below the threshold

target: T1, RADIL, Q96JH8; assay: holdup assay; design: key: below the threshold = too weak to quantify, mostly under pKd 3.1 to 4; conditions: plain residues with an end cap or a label only (N-terminal biotin on a linker: ado-ado)
T1 sequence (Q96JH8 971-1071, limits assumed, looked up): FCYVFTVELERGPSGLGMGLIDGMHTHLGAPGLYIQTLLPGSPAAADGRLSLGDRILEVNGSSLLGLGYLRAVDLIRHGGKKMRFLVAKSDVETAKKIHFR

Binder	pKd
B1	below the threshold
B2	below the threshold
B3	4.94
B4	below the threshold

target: LAP2, Q96RT1; assay: holdup assay; design: key: below the threshold = too weak to quantify, mostly under pKd 3.1 to 4; conditions: plain residues with an end cap or a label only (N-terminal biotin on a linker: ado-ado)
Sequence (Q96RT1 other isoform, or with tags, fused parts or gaps): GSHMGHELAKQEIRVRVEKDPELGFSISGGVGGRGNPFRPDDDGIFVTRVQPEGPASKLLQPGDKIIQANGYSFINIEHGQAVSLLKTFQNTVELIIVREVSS

Binder	pKd
B1	below the threshold
B2	below the threshold
B3	below the threshold
B4	below the threshold

target: FRMPD4, Q14CM0; assay: holdup assay; design: key: below the threshold = too weak to quantify, mostly under pKd 3.1 to 4; conditions: plain residues with an end cap or a label only (N-terminal biotin on a linker: ado-ado)
Sequence (Q14CM0 67-160): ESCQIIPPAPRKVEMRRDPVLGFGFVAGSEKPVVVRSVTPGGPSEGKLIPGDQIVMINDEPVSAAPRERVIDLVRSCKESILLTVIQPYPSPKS

Binder	pKd
B1	3.53
B2	below the threshold
B3	3.87
B4	4.17

target: GRID2IP_2, A4D2P6; assay: holdup assay; design: key: below the threshold = too weak to quantify, mostly under pKd 3.1 to 4; conditions: plain residues with an end cap or a label only (N-terminal biotin on a linker: ado-ado)
Sequence (A4D2P6 272-370): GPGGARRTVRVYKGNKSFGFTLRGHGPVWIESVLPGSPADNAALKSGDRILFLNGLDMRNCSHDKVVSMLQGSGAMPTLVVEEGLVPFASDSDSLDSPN

Binder	pKd
B1	4.75
B2	below the threshold
B3	below the threshold
B4	4.55

target: Inadl_6, Q8NI35; assay: holdup assay; design: key: below the threshold = too weak to quantify, mostly under pKd 3.1 to 4; conditions: plain residues with an end cap or a label only (N-terminal biotin on a linker: ado-ado)
Sequence (Q8NI35 1058-1167): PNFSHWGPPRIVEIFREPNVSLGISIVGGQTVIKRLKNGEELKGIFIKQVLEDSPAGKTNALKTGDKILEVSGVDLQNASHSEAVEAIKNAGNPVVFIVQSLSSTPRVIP

Binder	pKd
B1	below the threshold
B2	below the threshold
B3	below the threshold
B4	below the threshold

target: MAST1, Q9Y2H9; assay: holdup assay; design: key: below the threshold = too weak to quantify, mostly under pKd 3.1 to 4; conditions: plain residues with an end cap or a label only (N-terminal biotin on a linker: ado-ado)
Sequence (Q9Y2H9 962-1065): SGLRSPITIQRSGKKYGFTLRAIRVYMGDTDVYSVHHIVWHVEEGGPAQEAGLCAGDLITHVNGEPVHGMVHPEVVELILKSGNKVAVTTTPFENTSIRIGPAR

Binder	pKd
B1	4.2
B2	3.62
B3	3.95
B4	4.64

target: IL16_4, Q14005; assay: holdup assay; design: key: below the threshold = too weak to quantify, mostly under pKd 3.1 to 4; conditions: plain residues with an end cap or a label only (N-terminal biotin on a linker: ado-ado)
Sequence (Q14005 1229-1329): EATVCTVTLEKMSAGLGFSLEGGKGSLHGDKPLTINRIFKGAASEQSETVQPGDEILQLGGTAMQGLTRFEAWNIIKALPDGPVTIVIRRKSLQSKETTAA

Binder	pKd
B1	3.6
B2	below the threshold
B3	below the threshold
B4	3.61

target: LNX1_3, Q8TBB1; assay: holdup assay; design: key: below the threshold = too weak to quantify, mostly under pKd 3.1 to 4; conditions: plain residues with an end cap or a label only (N-terminal biotin on a linker: ado-ado)
Sequence (Q8TBB1 500-596): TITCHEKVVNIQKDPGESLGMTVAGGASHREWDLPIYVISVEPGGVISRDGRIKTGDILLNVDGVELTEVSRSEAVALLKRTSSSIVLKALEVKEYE

Binder	pKd
B1	below the threshold
B2	below the threshold
B3	4.49
B4	below the threshold

target: DLG4_2, P78352; assay: holdup assay; design: key: below the threshold = too weak to quantify, mostly under pKd 3.1 to 4; conditions: plain residues with an end cap or a label only (N-terminal biotin on a linker: ado-ado)
Sequence (P78352 155-259): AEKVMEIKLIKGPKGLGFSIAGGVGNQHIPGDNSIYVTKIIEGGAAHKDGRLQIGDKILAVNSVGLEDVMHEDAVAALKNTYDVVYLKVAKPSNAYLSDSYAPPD

Binder	pKd
B1	below the threshold
B2	below the threshold
B3	3.73
B4	below the threshold

target: MAST2, Q6P0Q8; assay: holdup assay; design: key: below the threshold = too weak to quantify, mostly under pKd 3.1 to 4; conditions: plain residues with an end cap or a label only (N-terminal biotin on a linker: ado-ado)
Sequence (Q6P0Q8 1099-1202): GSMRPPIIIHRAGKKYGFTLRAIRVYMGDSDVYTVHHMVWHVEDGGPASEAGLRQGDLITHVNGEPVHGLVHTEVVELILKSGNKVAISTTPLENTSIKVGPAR

Binder	pKd
B1	5.05
B2	4.35
B3	4.44
B4	5.28

target: Inadl_10, Q8NI35; assay: holdup assay; design: key: below the threshold = too weak to quantify, mostly under pKd 3.1 to 4; conditions: plain residues with an end cap or a label only (N-terminal biotin on a linker: ado-ado)
Sequence (Q8NI35 1673-1763): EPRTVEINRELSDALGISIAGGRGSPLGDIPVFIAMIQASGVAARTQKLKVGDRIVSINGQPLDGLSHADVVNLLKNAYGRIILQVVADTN

Binder	pKd
B1	below the threshold
B2	below the threshold
B3	below the threshold
B4	below the threshold

target: T2, ARHGAP21, Q5T5U3; assay: holdup assay; design: key: below the threshold = too weak to quantify, mostly under pKd 3.1 to 4; conditions: plain residues with an end cap or a label only (N-terminal biotin on a linker: ado-ado)
T2 sequence (Q5T5U3 45-169, limits assumed, looked up): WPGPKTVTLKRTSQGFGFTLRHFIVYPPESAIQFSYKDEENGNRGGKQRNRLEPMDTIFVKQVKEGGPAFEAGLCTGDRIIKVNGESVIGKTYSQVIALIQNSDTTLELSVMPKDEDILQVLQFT

Binder	pKd
B1	3.93
B2	below the threshold
B3	4.04
B4	3.91

target: T3, SHANK1, Q9Y566; assay: holdup assay; design: key: below the threshold = too weak to quantify, mostly under pKd 3.1 to 4; conditions: plain residues with an end cap or a label only (N-terminal biotin on a linker: ado-ado)
T3 sequence (Q9Y566 658-767, limits assumed, looked up): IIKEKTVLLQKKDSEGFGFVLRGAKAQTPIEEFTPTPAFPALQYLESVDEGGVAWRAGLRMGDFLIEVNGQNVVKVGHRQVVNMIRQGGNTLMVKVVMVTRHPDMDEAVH

Binder	pKd
B1	3.93
B2	below the threshold
B3	below the threshold
B4	5.62

target: Inadl_1, Q8NI35; assay: holdup assay; design: key: below the threshold = too weak to quantify, mostly under pKd 3.1 to 4; conditions: plain residues with an end cap or a label only (N-terminal biotin on a linker: ado-ado)
Sequence (Q8NI35 113-229): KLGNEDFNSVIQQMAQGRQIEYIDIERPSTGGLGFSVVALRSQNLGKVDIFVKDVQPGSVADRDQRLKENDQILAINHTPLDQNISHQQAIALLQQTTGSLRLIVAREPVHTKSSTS

Binder	pKd
B1	below the threshold
B2	below the threshold
B3	3.91
B4	below the threshold

target: GORASP2, Q9H8Y8; assay: holdup assay; design: key: below the threshold = too weak to quantify, mostly under pKd 3.1 to 4; conditions: plain residues with an end cap or a label only (N-terminal biotin on a linker: ado-ado)

Binder	pKd
B1	below the threshold
B2	below the threshold
B3	4.67
B4	below the threshold

target: PDLIM1, O00151; assay: holdup assay; design: key: below the threshold = too weak to quantify, mostly under pKd 3.1 to 4; conditions: plain residues with an end cap or a label only (N-terminal biotin on a linker: ado-ado)
Sequence (O00151 1-87): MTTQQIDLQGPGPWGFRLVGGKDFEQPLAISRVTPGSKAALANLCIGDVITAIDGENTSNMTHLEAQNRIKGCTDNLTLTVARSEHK

Binder	pKd
B1	below the threshold
B2	below the threshold
B3	below the threshold
B4	below the threshold

target: DLG4_1, P78352; assay: holdup assay; design: key: below the threshold = too weak to quantify, mostly under pKd 3.1 to 4; conditions: plain residues with an end cap or a label only (N-terminal biotin on a linker: ado-ado)
Sequence (P78352 62-152): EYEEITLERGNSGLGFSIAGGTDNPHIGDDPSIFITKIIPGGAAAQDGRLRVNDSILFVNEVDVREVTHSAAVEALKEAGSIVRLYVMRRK

Binder	pKd
B1	below the threshold
B2	below the threshold
B3	below the threshold
B4	below the threshold

target: MAGI2_5, Q86UL8; assay: holdup assay; design: key: below the threshold = too weak to quantify, mostly under pKd 3.1 to 4; conditions: plain residues with an end cap or a label only (N-terminal biotin on a linker: ado-ado)
Sequence (Q86UL8 915-1017): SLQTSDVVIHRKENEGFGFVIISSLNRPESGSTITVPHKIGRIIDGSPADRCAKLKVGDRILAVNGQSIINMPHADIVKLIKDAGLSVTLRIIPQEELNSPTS

Binder	pKd
B1	below the threshold
B2	3.6
B3	below the threshold
B4	3.75

target: T4, APBA2_2, Q99767; assay: holdup assay; design: key: below the threshold = too weak to quantify, mostly under pKd 3.1 to 4; conditions: plain residues with an end cap or a label only (N-terminal biotin on a linker: ado-ado)
T4 sequence (Q99767 654-744, limits assumed, looked up): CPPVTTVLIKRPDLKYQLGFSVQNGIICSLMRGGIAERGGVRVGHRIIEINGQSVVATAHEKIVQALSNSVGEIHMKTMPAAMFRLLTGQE

Binder	pKd
B1	below the threshold
B2	3.48
B3	below the threshold
B4	below the threshold

target: HTRA1, Q92743; assay: holdup assay; design: key: below the threshold = too weak to quantify, mostly under pKd 3.1 to 4; conditions: plain residues with an end cap or a label only (N-terminal biotin on a linker: ado-ado)
Sequence (Q92743 360-477): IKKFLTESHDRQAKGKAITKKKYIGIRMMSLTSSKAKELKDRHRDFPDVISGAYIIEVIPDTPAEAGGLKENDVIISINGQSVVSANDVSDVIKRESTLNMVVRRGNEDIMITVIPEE

Binder	pKd
B1	3.55
B2	below the threshold
B3	5.24
B4	below the threshold

target: DLG4_3, P78352; assay: holdup assay; design: key: below the threshold = too weak to quantify, mostly under pKd 3.1 to 4; conditions: plain residues with an end cap or a label only (N-terminal biotin on a linker: ado-ado)
Sequence (P78352 306-403): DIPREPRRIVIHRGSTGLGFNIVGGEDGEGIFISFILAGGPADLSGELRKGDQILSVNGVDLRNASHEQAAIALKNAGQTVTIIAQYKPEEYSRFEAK

Binder	pKd
B1	below the threshold
B2	below the threshold
B3	below the threshold
B4	below the threshold

target: DLG2_3, Q15700; assay: holdup assay; design: key: below the threshold = too weak to quantify, mostly under pKd 3.1 to 4; conditions: plain residues with an end cap or a label only (N-terminal biotin on a linker: ado-ado)

Binder	pKd
B1	below the threshold
B2	3.78
B3	3.63
B4	below the threshold

target: MAGI3_2, Q5TCQ9; assay: holdup assay; design: key: below the threshold = too weak to quantify, mostly under pKd 3.1 to 4; conditions: plain residues with an end cap or a label only (N-terminal biotin on a linker: ado-ado)
Sequence (Q5TCQ9 398-503): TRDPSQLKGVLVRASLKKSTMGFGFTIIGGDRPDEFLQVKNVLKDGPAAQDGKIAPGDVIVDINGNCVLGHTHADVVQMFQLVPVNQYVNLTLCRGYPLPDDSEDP

Binder	pKd
B1	3.51
B2	below the threshold
B3	5.55
B4	below the threshold

target: GRASP, Q7Z6J2; assay: holdup assay; design: key: below the threshold = too weak to quantify, mostly under pKd 3.1 to 4; conditions: plain residues with an end cap or a label only (N-terminal biotin on a linker: ado-ado)
Sequence (Q7Z6J2 96-193): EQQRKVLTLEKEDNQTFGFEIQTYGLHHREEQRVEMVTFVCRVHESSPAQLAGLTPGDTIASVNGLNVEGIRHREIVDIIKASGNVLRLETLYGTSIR

Binder	pKd
B1	4.43
B2	below the threshold
B3	below the threshold
B4	4.37

target: MAGI2_4, Q86UL8; assay: holdup assay; design: key: below the threshold = too weak to quantify, mostly under pKd 3.1 to 4; conditions: plain residues with an end cap or a label only (N-terminal biotin on a linker: ado-ado)
Sequence (Q86UL8 772-865): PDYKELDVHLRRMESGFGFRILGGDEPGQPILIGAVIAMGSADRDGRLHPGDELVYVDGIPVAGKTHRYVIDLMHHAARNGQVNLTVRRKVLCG

Binder	pKd
B1	below the threshold
B2	3.7
B3	3.8
B4	below the threshold

target: T5, SNTB1, Q13884; assay: holdup assay; design: key: below the threshold = too weak to quantify, mostly under pKd 3.1 to 4; conditions: plain residues with an end cap or a label only (N-terminal biotin on a linker: ado-ado)
T5 sequence (Q13884 107-205, limits assumed, looked up): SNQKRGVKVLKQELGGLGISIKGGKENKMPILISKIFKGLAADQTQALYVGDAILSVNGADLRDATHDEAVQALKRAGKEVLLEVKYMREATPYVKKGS

Binder	pKd
B1	3.56
B2	below the threshold
B3	below the threshold
B4	below the threshold

target: GIPC2, Q8TF65; assay: holdup assay; design: key: below the threshold = too weak to quantify, mostly under pKd 3.1 to 4; conditions: plain residues with an end cap or a label only (N-terminal biotin on a linker: ado-ado)
Sequence (Q8TF65 112-203): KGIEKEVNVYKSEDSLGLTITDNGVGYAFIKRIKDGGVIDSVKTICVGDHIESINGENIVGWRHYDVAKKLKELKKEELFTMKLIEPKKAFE

Binder	pKd
B1	below the threshold
B2	below the threshold
B3	below the threshold
B4	below the threshold

target: DLG1_2, Q12959; assay: holdup assay; design: key: below the threshold = too weak to quantify, mostly under pKd 3.1 to 4; conditions: plain residues with an end cap or a label only (N-terminal biotin on a linker: ado-ado)
Sequence (Q12959 314-412): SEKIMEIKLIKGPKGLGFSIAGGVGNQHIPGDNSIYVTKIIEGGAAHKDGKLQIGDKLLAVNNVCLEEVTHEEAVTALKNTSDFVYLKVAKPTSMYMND

Binder	pKd
B1	3.79
B2	below the threshold
B3	3.77
B4	below the threshold

target: LNX1_2, Q8TBB1; assay: holdup assay; design: key: below the threshold = too weak to quantify, mostly under pKd 3.1 to 4; conditions: plain residues with an end cap or a label only (N-terminal biotin on a linker: ado-ado)
Sequence (Q8TBB1 371-470): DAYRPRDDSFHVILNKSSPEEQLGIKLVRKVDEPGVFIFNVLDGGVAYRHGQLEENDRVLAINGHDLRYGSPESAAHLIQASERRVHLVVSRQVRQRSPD

Binder	pKd
B1	below the threshold
B2	below the threshold
B3	4.46
B4	below the threshold

target: IL16_1, Q14005; assay: holdup assay; design: key: below the threshold = too weak to quantify, mostly under pKd 3.1 to 4; conditions: plain residues with an end cap or a label only (N-terminal biotin on a linker: ado-ado)
Sequence (Q14005 210-306): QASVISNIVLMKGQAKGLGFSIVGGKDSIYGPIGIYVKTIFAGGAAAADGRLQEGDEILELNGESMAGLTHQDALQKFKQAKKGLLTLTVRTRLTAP

Binder	pKd
B1	below the threshold
B2	below the threshold
B3	below the threshold
B4	below the threshold

target: GRIP2_5, Q9C0E4; assay: holdup assay; design: key: below the threshold = too weak to quantify, mostly under pKd 3.1 to 4; conditions: plain residues with an end cap or a label only (N-terminal biotin on a linker: ado-ado)
Sequence (Q9C0E4 544-642): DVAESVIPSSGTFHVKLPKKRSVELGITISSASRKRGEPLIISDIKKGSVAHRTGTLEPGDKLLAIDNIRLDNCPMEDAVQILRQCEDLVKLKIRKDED

Binder	pKd
B1	below the threshold
B2	below the threshold
B3	below the threshold
B4	below the threshold

target: T6, PDZD2_2, O15018; assay: holdup assay; design: key: below the threshold = too weak to quantify, mostly under pKd 3.1 to 4; conditions: plain residues with an end cap or a label only (N-terminal biotin on a linker: ado-ado)
T6 sequence (O15018 329-429, limits assumed, looked up): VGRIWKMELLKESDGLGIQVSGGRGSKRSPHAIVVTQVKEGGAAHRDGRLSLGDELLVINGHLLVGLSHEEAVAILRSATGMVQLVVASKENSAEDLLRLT

Binder	pKd
B1	3.52
B2	below the threshold
B3	5.02
B4	below the threshold
